Key:
[1] = molecular target: T1, Claudin 18.2 (CLDN18.2), expressed on CHOS-CLDN 18.2 / HEK293-CLDN 18.2 / HCC827-CLDN 18.2 cells (human, UniProt P56856-2 1-261); experiment: FACS, CHOS-CLDN18.2 cells, 5 µg/ml
T1 construct: whole, on cells; The species is not repeated for the CHOS-CLDN 18.2 cells; also called claudin-18A2
Protocol: (§1) The initial concentration of the antibody was 20 μg/ml, it was diluted at 1:4, and incubated at 4° C. for 60 min.

[2] = molecular target: T1, Claudin 18.2 (CLDN18.2), expressed on …; experiment: FACS, CHOS-CLDN18.2 cells, 0.005 µg/ml
Protocol: as §1

[3] = molecular target: T1, Claudin 18.2 (CLDN18.2), expressed on …; experiment: FACS, CHOS-CLDN18.2 cells, 0.313 µg/ml
Protocol: as §1

[4] = molecular target: T1, Claudin 18.2 (CLDN18.2), expressed on …; experiment: FACS, CHOS-CLDN18.2 cells, 1.250 µg/ml
Protocol: as §1

[5] = molecular target: T1, Claudin 18.2 (CLDN18.2), expressed on …; experiment: FACS, CHOS-CLDN18.2 cells, 0 µg/ml (background)
Protocol: as §1

[6] = molecular target: T1, Claudin 18.2 (CLDN18.2), expressed on …; experiment: FACS, CHOS-CLDN18.2 cells
Protocol: as §1

[7] = molecular target: T1, Claudin 18.2 (CLDN18.2), expressed on …; experiment: FACS, CHOS-CLDN18.2 cells, 0.078 µg/ml
Protocol: as §1

[8] = molecular target: T1, Claudin 18.2 (CLDN18.2), expressed on …; experiment: FACS, CHOS-CLDN18.2 cells, 20 µg/ml
Protocol: as §1

[9] = molecular target: T1, Claudin 18.2 (CLDN18.2), expressed on …; experiment: FACS, CHOS-CLDN18.2 cells, 0.020 µg/ml
Protocol: as §1

[10] = molecular target: T1, Claudin 18.2 (CLDN18.2), expressed on …; experiment: FACS, CHOS-CLDN18.2 cells, 10 µg/ml
Protocol: (§2) The initial concentration of the antibody was 20 μg/mkit was diluted at 1:4, and incubated at 4° C. for 60 min.

[11] = molecular target: T1, Claudin 18.2 (CLDN18.2), expressed on …; experiment: FACS, MFI on CHOS-CLDN18.2 over MFI on CHOS-CLDN18.1, 10 µg/ml
Protocol: as §2

[12] = molecular target: T1, Claudin 18.2 (CLDN18.2), expressed on …; experiment: cell-based or functional assay

| FACS reading [1] | FACS reading [2] | FACS reading [3] | FACS reading [4] | FACS reading [5] | EC50 [6] [µg/mL] | max [6] | FACS reading [7] | FACS reading [8] | FACS reading [9] | MFI [10] | CLDN18.2/CLDN18.1 (MFI ratio) [11] | Binder | other results |
| --- | --- | --- | --- | --- | --- | --- | --- | --- | --- | --- | --- | --- | --- |
| 166000 | 5980 | 97500 | 160000 | 732 | 0.165 | 166000 | 46300 | 99500 | 19900 | 721000 | 709 | QP14641461 (antibody, human IgG1, kappa, V domains shown, Humanized from QP207208) VH: EVQLVQSGAEVKKPGASVKVSCKASGYTFTSYIMHWVRQAPGQGLEWIGYINPYNDGTKYNEKFKGRVTLTRDKSTSTVYMELSSLRSEDTAVYYCARLGFTTRNAMDYWGQGTLVTVSS VL: DIVMTQSPDSLAVSLGERATINCKSSQSLLNSGNQKNYLAWYQQKPGQPPKLLIYGASTRESGVPDRFTGSGSGTDFTLTISSLQAEDVAVYYCQNDHSYPFTFGQGTKLEIKR |  |
| 227000 | 7790 | 144000 | 201000 | 732 | 0.156 | 227000 | 51400 | 131000 | 19300 | 657000 | 700 | QP14631461 (antibody, human IgG1, kappa, V domains shown, also called QP14611463) VH: QVQLVQSGAEVKKPGASVKVSCKASGYTFTSYIMHWVRQAPGQGLEWMGYINPYNDGTKYNEKFKGRVTMTRDTSTSTVYMELSSLRSEDTAVYYCARLGFTTRNAMDYWGQGTLVTVSS VL: DIVMTQSPDSLAVSLGERATINCKSSQSLLNSGNQKNYLAWYQQKPGQPPKLLIYGASTRESGVPDRFTGSGSGTDFTLTISSLQAEDVAVYYCQNDHSYPFTFGQGTKLEIKR | EC50 of killing, ADCC (PBMC, HEK293-CLDN18.2 cells) [12]: 0.0115 µg/mL; Killing percentage, ADCC (PBMC, HEK293-CLDN18.2 cells), 0 µg/ml [12]: 4.88%; Killing percentage, ADCC (PBMC, HEK293-CLDN18.2 cells), 0.0001024 µg/ml [12]: 4.3%; Killing percentage, ADCC (PBMC, HEK293-CLDN18.2 cells), 0.000512 µg/ml [12]: 5.65%; Killing percentage, ADCC (PBMC, HEK293-CLDN18.2 cells), 0.00256 µg/ml [12]: 10.2%; Killing percentage, ADCC (PBMC, HEK293-CLDN18.2 cells), 0.0128 µg/ml [12]: 23.4%; Killing percentage, ADCC (PBMC, HEK293-CLDN18.2 cells), 0.064 µg/ml [12]: 39.3%; Killing percentage, ADCC (PBMC, HEK293-CLDN18.2 cells), 0.32 µg/ml [12]: 43.8%; Killing percentage, ADCC (PBMC, HEK293-CLDN18.2 cells), 1.6 µg/ml [12]: 43.4%; Killing percentage, ADCC (PBMC, HEK293-CLDN18.2 cells), 8 µg/ml [12]: 46.3%; Killing percentage, ADCC (PBMC, HEK293-CLDN18.2 cells), 40 µg/ml [12]: 28.6% |
| 224000 | 8450 | 93600 | 170000 | 732 | 0.306 | 224000 | 29300 | 117000 | 15800 | 758000 | 718 | QP14641462 (antibody, human IgG1, kappa, V domains shown, Humanized from QP207208) VH: EVQLVQSGAEVKKPGASVKVSCKASGYTFTSYIMHWVRQAPGQGLEWIGYINPYNDGTKYNEKFKGRVTLTRDKSTSTVYMELSSLRSEDTAVYYCARLGFTTRNAMDYWGQGTLVTVSS VL: DIVMTQSPDSLAVSLGERATINCKSSQSLLNSGNQKNYLAWYQQKPGQPPKLLIYGASTRESGVPDRFTGSGSGTDFTLTISSVQAEDVAVYYCQNDHSYPFTFGQGTKLEIKR |  |
| 191000 | 6600 | 151000 | 146000 | 732 | 0.0936 | 191000 | 44300 | 114000 | 16200 | 604000 | 579 | QP14641460 (antibody, human IgG1, kappa, V domains shown, Humanized from QP207208) VH: EVQLVQSGAEVKKPGASVKVSCKASGYTFTSYIMHWVRQAPGQGLEWIGYINPYNDGTKYNEKFKGRVTLTRDKSTSTVYMELSSLRSEDTAVYYCARLGFTTRNAMDYWGQGTLVTVSS VL: DIVMTQSPDSLAVSLGERATINCKSSQSLLNSGNQKNYLAWYQQKPGQPPKLLIYGASTRESGVPDRFSGSGSGTDFTLTISSLQAEDVAVYYCQNDHSYPFTFGQGTKLEIKR |  |
| 189000 | 7190 | 134000 | 219000 | 732 | 0.186 | 189000 | 50300 | 174000 | 19600 | 595000 | 596 | QP14651460 (antibody, human IgG1, kappa, V domains shown, Humanized from QP207208) VH: EVQLVQSGAEVKKPGASVKVSCKASGYTFTSYIMHWVRQAPGQGLEWIGYINPYNDGTKYNEKFKGRVTLTSDKSTSTVYMELSSLRSEDTAVYYCARLGFTTRNAMDYWGQGTLVTVSS VL: DIVMTQSPDSLAVSLGERATINCKSSQSLLNSGNQKNYLAWYQQKPGQPPKLLIYGASTRESGVPDRFSGSGSGTDFTLTISSLQAEDVAVYYCQNDHSYPFTFGQGTKLEIKR |  |
| 187000 | 5090 | 90200 | 149000 | 732 | 0.267 | 187000 | 24700 | 117000 | 11500 | 627000 | 476 | QP207208 (antibody, human IgG1, V domains shown, Chimeric; also called 51A3; mouse-derived chimeric antibody QP207208) VH: EVQLQQSGPELVKPGASVKMSCKASGYTFTSYIMHWVKQKPGQGLEWIGYINPYNDGTKYNEKFKGKATLTSDKSSSTVYMELSSLTSEDSAVYCCARLGFTTRNAMDYWGQGTSVTVSS VL: DIVMTQSPSSLSVSAGEKVTMNCKSSQSLLNSGNQKNYLAWYQQKPGQPPKLLIYGASTRESGVPDRFTGSGSGTDFTLTISSVQAEDLAVYYCQNDHSYPFTFGSGTKLEIK |  |

Reference: patent US20230183352A1 (published 2023)
